In article PMC10018351:

How the values were obtained:
hnRNPU [1] = target: hnRNPU (UniProt Q00839); experiment: Flag-hnRNPU co-IP, HA-FOXN3 immunoblot; conditions: reference: WT FOXN3 with HA-p38; sites S83,S85
hnRNPU [2] = target: hnRNPU (UniProt Q00839); experiment: anti-Flag co-IP, hnRNPU immunoblot; conditions: reference: wild type; sites S83,S85

| binding against the reference (hnRNPU [1]) | binding against the reference (hnRNPU [2]) | Substance |
| --- | --- | --- |
| stronger |  | FOXN3 (from UniProt O00409) S83,85A with HA-p38 |
|  | stronger | FOXN3 (from UniProt O00409) S83,85A |
